Test results published in patent US7358088B2, “Peptides and compositions which modulate apoptosis” (ImmunoGen, Inc., priority 1995, dated 2008).
Ends that are not written are not given here. * marks the point of attachment. Biotin = O=C1N[C@H]2[C@H](CS[C@H]2CCCCC(=O)*)N1

What was measured:
Rat-1 cells = test: Transient transfection cell killing assay (loss of β-galactosidase-positive blue cells); type: cell-based; conditions: Rat-1 cells co-transfected with β-galactosidase marker plasmid, 24 hours post transfection, relative to control vector
Experimental: (§1) The transient transfection assay procedure is similar to that previously described for detecting apoptosis induced by IL-1E-converting enzyme (Miura et al., Cell 75: 653-660 (1993); Kumar et al., Genes Dev. 8: 1613-1626 (1994); Wang et al., Cell 78: 739-750 (1994). One day prior to transfection, Rat-1 cells were plated in 24 well dishes at 3.5X10^4 cells/well. The following day, the cells were transfected with a marker plasmid encoding β-galactosidase (0.16 μg), in combination with an expression plasmid encoding Bak (0.42 μg), by the Lipofectamine procedure (Gibco/BRL). At 24 hours post transfection, cells were fixed and stained with X-Gal to detect J-galactosidase expression in cells that received plasmid DNA (Miura et al., supra). The number of blue cells was counted by microscopic examination and scored as either live (flat blue cells) or dead (round blue cells). The cell killing activity of Bak in this assay is manifested by a large reduction in the number of blue cells obtained relative to co-transfection of the β-gal plasmid with a control expression vector (i.e., with no bak cDNA insert).
The interpretation that loss of blue cells reflects the cell killing function of Bak is supported by a variety of observations: • 1. Rat-1 cells are rapidly killed by enforced Bak expression in stable transfection assays; • 2.
Enforced bak expression induces apoptosis in stable Rat-1 cell lines transfected with an inducible bak expression plasmid. In order to more rapidly assess the cell killing function of a large number of bak mutants, a transient transfection assay was employed. Rat-1 cells were transfected with a marker plasmid encoding β-galactosidase, in combination with an expression plasmid encoding Bak, or various control plasmids.

Bcl-xL [1] = target: T1, Bcl-xL (Homo sapiens, UniProt Q07817); test: In vitro protein binding assay, 35S labeled protein with GST-Bcl-xL on glutathione-agarose beads; design: made in house; host or cells: E. coli; conditions: in vitro translated 35S labeled protein; GST alone as specificity control
T1 sequence (Q07817 whole entry): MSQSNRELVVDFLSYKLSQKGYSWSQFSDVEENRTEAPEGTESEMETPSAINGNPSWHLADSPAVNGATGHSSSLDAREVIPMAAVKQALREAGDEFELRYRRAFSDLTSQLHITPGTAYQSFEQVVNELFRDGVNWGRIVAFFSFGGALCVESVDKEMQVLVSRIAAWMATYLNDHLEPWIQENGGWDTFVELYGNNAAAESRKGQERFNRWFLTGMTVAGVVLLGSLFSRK
Experimental: A). Bak/Bcl-xL interactions measured in vitro. ^35S labeled in vitro translated Bak (lane 1) was mixed either with GST-Bcl-xL (lane 2) or GST (lane 3). The complexes were captured on glutathione-agarose beads, and bound ^35S labeled Bak protein was detected by electrophoresis on SDS polyacrylamide gels followed by autoradiography.
The beads were removed by centrifugation and the supernatants were incubated with GST or GST-Bcl-xL (final concentration […]) at 4° C. for 1 hour. The GST fusion proteins and any interacting proteins were recovered by incubation for 1 hour with an additional […] of GSH-agarose beads. The beads were washed twice with NP-40 lysis buffer followed by two washes with NP-40 lysis buffer without NP-40. Proteins were eluted from the beads by incubation in SDS-PAGE sample buffer at 100° C. for 5 min and loaded onto 4-20% SDS-polyacrylamide gels. Following electrophoresis, gels were fixed and incubated in a fluorography enhancing solution (Amplify; Amersham). The gels were dried and subjected to autoradiography at −70° C.

[2] = tested on: Mouse Embryonic Fibroblasts (MEF) lacking functional p53; test: Transient transfection cell killing assay in p53-/- fibroblasts; type: cell-based; conditions: p53-/- transformed mouse fibroblasts, co-transfection with β-gal
Experimental: (§2) Cells were fixed and stained with X-gal at 24 hours post-transfection, and the number of blue cells (β-galactosidase-positive) counted by microscopic examination. B. Mouse Embryonic Fibroblasts (MEF) lacking functional p53 (p53^−/−MEF) were co-transfected as described in(A). C. Hela cells, derived from cervical carcinoma, were co-transfected as described in (A). D. BT549 cells, derived from breast carcinoma, were co-transfected as described in (A).
as §1, with “The cell killing activity of Bak in this assay is manifested by a large reduction in the number of blue cells obtained relative to co-transfection of the β-gal plasmid with a control expression vector (i.e., with no bak cDNA insert).” left out
(§3) Bak cell killing activity was assessed in several additional cell lines. […]

[3] = tested on: BT549 (breast carcinoma) cells; test: Transient transfection cell killing assay in BT549 cells; type: cell-based, human
Experimental: as §2
as §1, with “The cell killing activity of Bak in this assay is manifested by a large reduction in the number of blue cells obtained relative to co-transfection of the β-gal plasmid with a control expression vector (i.e., with no bak cDNA insert).” left out
as §3

Bcl-xL [4] = target: T1, Bcl-xL; test: Co-immunoprecipitation of epitope-tagged proteins from transfected COS cells; type: cell-based; conditions: anti-HA immunoprecipitation, western blot
Experimental: B). Bak/Bcl-xL interactions detected in transfected cells. Plasmids expressing epitope-tagged forms of Bak and Bcl-xL (HA-Bak and Flag tag-Bcl-xL) were co-transfected into COS cells. HA-Bak was immunoprecipitated (anti-HA IP) from transfected cell lysates and associated Bcl-xL was detected by Western blot analysis with an anti-Flag tag antibody.
COS cells were grown in Dulbecco's modified Eagle's medium (Life Technologies, Inc.) supplemented with 10% bovine calf serum, 2% L-glutamine and 1% pen/strep (Life Technologies, Inc.). Cells were seeded at 2.0×10^5 cells/35 mm well and transfected with expression plasmids 24 hours later using Lipofectamine as described by the supplier (Life Technologies, Inc.). Bak (and Bak mutants) was expressed as a fusion protein with the HA epitope tag at its amino terminus. Bcl-xL was also expressed with an amino terminal epitope tag (Flag; Kodak). At 24 hours post-transfection, cells were washed with phosphate buffered saline and lysed in NP-40 Lysis buffer also containing 1 mM PMSF, […] pepstatin, and […] leupeptin. The lysates were incubated with anti-HA antibody (12CA5, Boehringer Mannheim) for 1 hour and with […] BSA-washed Protein A-agarose beads (50% slurry) for an additional hour. The beads were washed twice with NP-40 lysis buffer followed by two washes with NP-40 lysis buffer without NP-40. […]

[5] = tested on: Hela (cervical carcinoma) cells; test: Transient transfection cell killing assay in Hela cells; type: cell-based, human
Experimental: as §2
as §1, with “The cell killing activity of Bak in this assay is manifested by a large reduction in the number of blue cells obtained relative to co-transfection of the β-gal plasmid with a control expression vector (i.e., with no bak cDNA insert).” left out
as §3

Bcl-xL [6] = target: T1, Bcl-xL; test: GST-PEM in vitro binding of 35S labeled Bcl-xL; design: made in house; host or cells: E. coli; conditions: GST fusion, in vitro translated 35S labeled Bcl-xL; GST alone as control
Text: (§4) Complexes were captured with glutathione-agarose beads, washed, and bound proteins detected by polyacrylamide gel electrophoresis and autoradiography. […] Thus, the GD domain can mediate interaction not only with Bcl-xL but also Bak and Bax.
(§5) Complexes were captured with glutathione-agarose beads, washed, and bound proteins detected by polyacrylamide gel electrophoresis and autoradiography.

Bak = target: T2, Bak (Homo sapiens, UniProt Q16611); test: GST-PEM in vitro binding of 35S labeled Bak; conditions: GST fusion, in vitro translated 35S labeled Bak; GST alone as control
T2 construct: diminished relative to full length Bak; host or cells: coupled transcription/translation in rabbit reticulocyte lysate
T2 sequence (Q16611 1-211): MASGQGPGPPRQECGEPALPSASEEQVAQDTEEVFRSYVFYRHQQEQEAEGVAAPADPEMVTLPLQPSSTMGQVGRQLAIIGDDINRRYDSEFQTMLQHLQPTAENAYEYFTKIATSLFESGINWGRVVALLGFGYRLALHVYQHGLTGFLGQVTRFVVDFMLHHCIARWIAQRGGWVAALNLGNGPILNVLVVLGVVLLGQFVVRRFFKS
Text: as §4, §5

Bax = target: T3, Bax (Homo sapiens, UniProt Q07812); test: GST-PEM in vitro binding of 35S labeled Bax; conditions: GST fusion, in vitro translated 35S labeled Bax; GST alone as control
T3 construct: host or cells: coupled transcription/translation in rabbit reticulocyte lysate
T3 sequence (Q07812 whole entry, the tested form may be a part): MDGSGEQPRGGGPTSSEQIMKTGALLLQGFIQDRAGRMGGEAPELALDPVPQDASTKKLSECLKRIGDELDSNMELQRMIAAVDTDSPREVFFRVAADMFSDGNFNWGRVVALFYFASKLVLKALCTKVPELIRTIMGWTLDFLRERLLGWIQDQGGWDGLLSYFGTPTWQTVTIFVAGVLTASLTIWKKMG
Text: as §4, §5

Bip1a = target: T4, Bip1a (Homo sapiens, UniProt Q13323); test: GST-PEM in vitro binding of 35S labeled Bip1a; conditions: GST fusion, in vitro translated 35S labeled Bip1a
T4 construct: host or cells: coupled transcription/translation in rabbit reticulocyte lysate
T4 sequence (Q13323 1-160): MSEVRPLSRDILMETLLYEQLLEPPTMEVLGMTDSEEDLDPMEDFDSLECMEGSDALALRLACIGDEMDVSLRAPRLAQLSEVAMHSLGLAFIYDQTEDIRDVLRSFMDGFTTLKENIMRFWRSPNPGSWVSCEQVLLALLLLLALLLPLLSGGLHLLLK
Text: as §4, §5

GST-Bcl-xL = target: T5, GST-Bcl-xL (Homo sapiens, UniProt Q07817); test: High through-put screening assay 1: biotinylated GD peptide on GST-Bcl-xL-coated multiwell plates, ELISA; type: binding; conditions: ELISA with streptavidin-conjugated HRP, 4° C. for 1 hour
T5 construct: made in house; host or cells: E. coli
T5 sequence (Q07817 whole entry): as the sequence (Q07817 whole entry) above
Experimental: Multiwell plates (Nunc Maxisorp) were coated with GST-Bcl-xL and blocked with 1% normal goat serum in PBS. A N-biotinylated GD peptide corresponding to Bak (71-89; […] [SEQ ID NO: 35]) was added and the plates were incubated at 4° C. for 1 hour. The plates were washed to remove unbound GD peptide and the amount of bound peptide was determined by ELISA using streptavidin-conjugated horse radish peroxidase. Coating with GST-Bcl-xL was omitted in the control wells.
According to the present example, multiwell plates coated with GST-Bcl-xL were incubated with a labeled GD domain peptide probe. […] More specifically, wells in a multiwell plate were coated without (control) or with GST-Bcl-xL and then incubated with a GD domain peptide derived from the Bcl-2 homolog Bak (amino acid residues 71-89; […] [SEQ ID NO: 35]). The peptide was labeled by biotinylation at the amino terminus to allow detection and quantitation of bound peptide using streptavidin-conjugated horse radish peroxidase (HRP) in a standard ELISA procedure. […] Compounds that antagonize GD domain-mediated interactions can be conveniently identified using this assay by adding candidate compounds to the wells during the binding step. Those compounds that disrupt the interaction of the biotinylated GD domain peptide with GST-Bcl-xL will cause a decrease in the ELISA signal.

[7] = target: T6, Bcl-xL/Bak GD domain interaction (Homo sapiens, UniProt Q07817); test: High through-put screening assay 2: GST-Bcl-xL binding to biotinylated Bak GD peptide on neutravidin wells, ELISA; conditions: peptide bound to neutravidin-coated wells, ELISA with anti-GST-HRP
T6 construct: made in house; host or cells: E. coli
T6 sequence (Q07817 whole entry, the tested form may be a part): as the sequence (Q07817 whole entry) above
Experimental: An assay was developed to screen for compounds that block the interaction between the Bcl-2 homologs, Bcl-xL and Bak. A synthetic peptide corresponding to the Bak GD binding domain ([…] [SEQ ID NO: 35]) was biotinylated and bound to wells coated with neutravidin. […] Peptides encompassing the GD domain from various Bcl-2 family members were tested for their ability to block GD domain-mediated interactions in this assay. Peptides tested: Bcl-w [SEQ ID NO: 39] […] ([…]), Bak [SEQ ID NO: 36]([…]), Bak-15 [SEQ ID NO: 37] ([…]), Bak-15L78A [SEQ ID NO: 38] ([…]), control (no peptide).
In a modification of the high through-put screening assay 1 described herein, wells are coated with an avidin derivative, to which a biotinylated peptide/protein is bound. A GST-fusion protein that can interact with the biotinylated peptide/protein is added in the presence or absence of test compounds. The plates are incubated and then unbound GST-fusion protein is removed by washing. The amount of GST-fusion protein specifically bound to the tethered peptide/protein is determined by ELISA using an anti-GST antibody conjugated to horse radish peroxidase. Compounds which block the interaction between the biotinylated peptide/protein and the GST-fusion protein cause a decrease in the ELISA signal.
In a specific example, an assay was developed to screen for compounds that block the interaction between the Bcl-2 homologs, Bcl-xL and Bak. A biotinylated Bak GD domain peptide (amino acid residues 71-89; N-biotinylated […] [SEQ ID NO: 35]) was bound to wells coated with neutravidin. […] Using this assay, peptides from Bcl-2 family members were identified which block the Bcl-xL/Bak GD domain interaction (FIG. 10).

Bak: Bcl-2 related cell death protein, HA-epitope tagged, expressed from plasmid or in vitro translated
cell killing activity (reduction in number of blue β-gal expressing cells) (Rat-1 cells): large reduction in the number of blue (β-gal expressing) cells | binding to GST-Bcl-xL in vitro (Bcl-xL [1]): binds | cell killing (number of blue cells) [2]: greatly reduced the number of blue cells | cell killing (number of blue cells) [3]: can kill human tumor cells | interaction with Bcl-xL in transfected cells (Bcl-xL [4]): specific Bak/Bcl-xL interaction could also be detected | cell killing (number of blue cells) [5]: can kill human tumor cells

GST-PEM: portion of Bak (PEM, residues 58-103) encompassing the GD domain fused to GST, bacterially expressed
interaction with Bcl-xL (Bcl-xL [6]): interact specifically | interaction with Bak (homodimerization) (Bak): interact specifically | interaction with Bax (heterodimerization) (Bax): interact specifically | interaction with Bip1a (Bip1a): does not interact

MGQVGRQLAIIGDDINRRY (Biotin-MGQVGRQLAIIGDDINRRY) [SEQ ID NO: 35, Bak GD domain peptide, amino acid residues 71-89, biotinylated at the amino terminus]
binding of biotinylated peptide to GST-Bcl-xL-coated wells (GST-Bcl-xL): specifically interacts in a concentration-dependent manner | binding of GST-Bcl-xL to the tethered biotinylated peptide [7]: bind specifically
